Assay results as given in patent US20080076708A1.

Target: Recombinant human Interleukin-18 (r-hIL-18) (human) (UniProt Q14116)
Assay: cell-based or functional assay

Sequence of Recombinant human Interleukin-18 (r-hIL-18) (human) (Q14116 37-193 limits assumed): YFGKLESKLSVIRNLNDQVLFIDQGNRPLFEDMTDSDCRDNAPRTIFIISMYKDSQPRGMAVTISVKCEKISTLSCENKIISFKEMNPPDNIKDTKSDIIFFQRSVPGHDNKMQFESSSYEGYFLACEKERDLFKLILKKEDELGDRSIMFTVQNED

| Substance | Biological activity U/mL (KG-1 cells in vitro bioassay; bulk ILNCT23) [U/mL] | Biological activity U/mL (KG-1 cells in vitro bioassay; bulk ILNCT24) [U/mL] | Specific activity U/mg (KG-1 cells in vitro bioassay; bulk ILNCT23) [U/mg] | Specific activity U/mg (KG-1 cells in vitro bioassay; bulk ILNCT24) [U/mg] | Biological activity U/mL (KG-1 cells in vitro bioassay; bulk ILNCT19) [U/mL] | Biological activity U/mL (KG-1 cells in vitro bioassay; bulk ILNCT20) [U/mL] | Biological activity U/mL (KG-1 cells in vitro bioassay; bulk ILNCT21) [U/mL] | Biological activity U/mL (KG-1 cells in vitro bioassay; bulk ILNCT22) [U/mL] | Specific activity U/mg (KG-1 cells in vitro bioassay; bulk ILNCT19) [U/mg] | Specific activity U/mg (KG-1 cells in vitro bioassay; bulk ILNCT20) [U/mg] | Specific activity U/mg (KG-1 cells in vitro bioassay; bulk ILNCT21) [U/mg] | Specific activity U/mg (KG-1 cells in vitro bioassay; bulk ILNCT22) [U/mg] |
| --- | --- | --- | --- | --- | --- | --- | --- | --- | --- | --- | --- | --- |
| r-hIL-18BP bulks ILNCT23 and ILNCT24 (from UniProt O95998 31-194) | 1.2e+06 | 1.01e+06 | 19800 | 17900 | – | – | – | – | – | – | – | – |
| truncated form of r-hIL-18BP (serum-free produced drug substance batches ILNCT19-22) (from UniProt O95998 46-194) | – | – | – | – | 949000 | 1.23e+06 | 1.28e+06 | 1.35e+06 | 15400 | 21400 | 20400 | 22500 |
